Molecular target: T1, E. coli TatC (subunit of the overexpressed TatBC complex) (E. coli), P69423
T1 chain: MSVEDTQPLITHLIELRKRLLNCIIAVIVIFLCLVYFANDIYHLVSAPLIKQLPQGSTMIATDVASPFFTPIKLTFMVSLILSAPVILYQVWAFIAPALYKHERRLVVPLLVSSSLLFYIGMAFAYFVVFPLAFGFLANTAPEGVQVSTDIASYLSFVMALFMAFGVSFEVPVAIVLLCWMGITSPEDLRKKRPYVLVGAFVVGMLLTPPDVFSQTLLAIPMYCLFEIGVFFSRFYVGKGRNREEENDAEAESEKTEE
Assay: cryo-EM structure
Details: remark: other sources report otherwise

B1: E. coli TatC (subunit of the overexpressed TatBC complex), P69423 1-258 (natural protein)
chain: T1 chain
Work on B1 yielded a stoichiometry N of 3.

From publication doi:10.1101/2025.09.18.677151
